The values that follow come from the supplement of paper PMC5998384.

The test system of series [1] is HeLa Kyoto. The series can be described thus: thermal stability score vs G1/S (z-score of summed log2 fold changes over temperatures); higher = more thermally stable than in G1/S.
The subject of series [2] is HeLa Kyoto. The series can be described thus: melting temperature (median over replicates), in situ; higher = more thermally stable.
Series [3] relates to HeLa Kyoto. The series can be described thus: solubility change mitosis vs G1/S (difference of NP-40 vs SDS log2 ratios) (log2 ratio difference); higher = more soluble in mitosis.
Series [4] relates to HeLa Kyoto. As to the kind of experiment: solubility in G1/S (NP-40 vs SDS abundance) (log2 ratio); higher = more soluble. The conditions noted are these: cell cycle stage: G1/S.
The mark [5] stands for this setting: cell cycle stage: early G1 (4.5 h after nocodazole release).
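Throughout, for melting temperature (median over replicates), in situ: HeLa Kyoto cells synchronized by double thymidine or nocodazole block, proteins quantified by TMT10plex mass spectrometry, three independent biological replicates.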
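Throughout, for solubility change mitosis vs G1/S (difference of NP-40 vs SDS log2 ratios): synchronized HeLa Kyoto cells (double thymidine block for G1/S, nocodazole release for mitosis), protein amounts in NP-40 versus SDS lysates quantified by mass spectrometry, three biological replicates.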
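Throughout, for solubility in G1/S (NP-40 vs SDS abundance): HeLa Kyoto cells arrested at G1/S by double thymidine block, proteins quantified by TMT10plex mass spectrometry in mild NP-40 versus SDS extracts, three biological replicates.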
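Throughout, for thermal stability score vs G1/S (z-score of summed log2 fold changes over temperatures): synchronized HeLa Kyoto cells, proteins quantified by TMT10plex mass spectrometry, three biological replicates, mitosis taken 0.5 h after nocodazole release, G1/S directly after double thymidine block.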

In the case of “MEPLAAYPLKCSGPRAKVFAVLLSIVLCTVTLFLLQLKFLKPKINSFYAFEVKDAKGRTVSLEKYKGKVSLVVNVASDCQLTDRNYLGLKELHKEFGPSHFSVLAFPCNQFGESEPRPSKEVESFARKNYGVTFPIFHKIKILGSEGEPAFRFLVDSSKKEPRWNFWKYLVNPEGQVVKFWKPEEPIEVIRPDIAALVRQVIIKKKEDL [GPX8]”, the thermal stability score amounted to 3.63 in the series on HeLa Kyoto [1] (setting [5]) and 4.95 in the series on HeLa Kyoto [1] (cell cycle stage: mitosis). Also, the melting temperature in the series on HeLa Kyoto [2] (cell cycle stage: G1/S) was 52.8 °C; in the series on HeLa Kyoto [2] (cell cycle stage: mitosis), 52.3 °C. The “solubility change mitosis (log2)” value with HeLa Kyoto [3] was -0.208. Also, the “solubility in G1/S (log2)” value in the series with HeLa Kyoto [4] came out at 0.0659.
Consider “MEPSSLELPADTVQRIAAELKCHPTDERVALHLDEEDKLRHFRECFYIPKIQDLPPVDLSLVNKDENAIYFLGNSLGLQPKMVKTYLEEELDKWAKIAAYGHEVGKRPWITGDESIVGLMKDIVGANEKEIALMNALTVNLHLLMLSFFKPTPKRYKILLEAKAFPSDHYAIESQLQLHGLNIEESMRMIKPREGEETLRIEDILEVIEKEGDSIAVILFSGVHFYTGQHFNIPAITKAGQAKGCYVGFDLAHAVGNVELYLHDWGVDFACWCSYKYLNAGAGGIAGAFIHEKHAHTIKPALVGWFGHELSTRFKMDNKLQLIPGVCGFRISNPPILLVCSLHASLEIFKQATMKALRKKSVLLTGYLEYLIKHNYGKDKAATKKPVVNIITPSHVEERGCQLTITFSVPNKDVFQELEKRGVVCDKRNPNGIRVAPVPLYNSFHDVYKFTNLLTSILDSAETKN [KYNU]”, for which the thermal stability score in the series on HeLa Kyoto [1] (setting [5]) was -0.273; with HeLa Kyoto [1] (cell cycle stage: mitosis) it was -0.415. In addition, the melting temperature is 61.5 °C in the series on HeLa Kyoto [2] (cell cycle stage: G1/S) and 62.3 °C with HeLa Kyoto [2] (cell cycle stage: mitosis). Further, the “solubility change mitosis (log2)” value in the series on HeLa Kyoto [3] is -0.229. Moreover, the “solubility in G1/S (log2)” value in the series on HeLa Kyoto [4] amounted to 0.121.
With “MEQLRAAARLQIVLGHLGRPSAGAVVAHPTSGTISSASFHPQQFQYTLDNNVLTLEQRKFYEENGFLVIKNLVPDADIQRFRNEFEKICRKEVKPLGLTVMRDVTISKSEYAPSEKMITKVQDFQEDKELFRYCTLPEILKYVECFTGPNIMAMHTMLINKPPDSGKKTSRHPLHQDLHYFPFRPSDLIVCAWTAMEHISRNNGCLVVLPGTHKGSLKPHDYPKWEGGVNKMFHGIQDYEENKARVHLVMEKGDTVFFHPLLIHGSGQNKTQGFRKAISCHFASADCHYIDVKGTSQENIEKEVVGIAHKFFGAENSVNLKDIWMFRARLVKGERTNL [PHYH]”, the thermal stability score was 2.97 in the series on HeLa Kyoto [1] (setting [5]) and 2.13 in the series on HeLa Kyoto [1] (cell cycle stage: mitosis). Also, the values for the melting temperature with HeLa Kyoto [2] (cell cycle stage: G1/S) and in the series on HeLa Kyoto [2] (cell cycle stage: mitosis) were 51.6 °C and 52.4 °C, respectively. In the series on HeLa Kyoto [3], the “solubility change mitosis (log2)” value was -0.191. Moreover, the “solubility in G1/S (log2)” value with HeLa Kyoto [4] is 0.298.
For “MEQVAEGARVTAVPVSAADSTEELAEVEEGVGVVGEDNDAAARGAEAFGDSEEDGEDVFEVEKILDMKTEGGKVLYKVRWKGYTSDDDTWEPEIHLEDCKEVLLEFRKKIAENKAKAVRKDIQRLSLNNDIFEANSDSDQQSETKEDTSPKKKKKKLRQREEKSPDDLKKKKAKAGKLKDKSKPDLESSLESLVFDLRTKKRISEAKEELKESKKPKKDEVKETKELKKVKKGEIRDLKTKTREDPKENRKTKKEKFVESQVESESSVLNDSPFPEDDSEGLHSDSREEKQNTKSARERAGQDMGLEHGFEKPLDSAMSAEEDTDVRGRRKKKTPRKAEDTRENRKLENKNAFLEKKTVPKKQRNQDRSKSAAELEKLMPVSAQTPKGRRLSGEERGLWSTDSAEEDKETKRNESKEKYQKRHDSDKEEKGRKEPKGLKTLKEIRNAFDLFKLTPEEKNDVSENNRKREEIPLDFKTIDDHKTKENKQSLKERRNTRDETDTWAYIAAEGDQEVLDSVCQADENSDGRQQILSLGMDLQLEWMKLEDFQKHLDGKDENFAATDAIPSNVLRDAVKNGDYITVKVALNSNEEYNLDQEDSSGMTLVMLAAAGGQDDLLRLLITKGAKVNGRQKNGTTALIHAAEKNFLTTVAILLEAGAFVNVQQSNGETALMKACKRGNSDIVRLVIECGADCNILSKHQNSALHFAKQSNNVLVYDLLKNHLETLSRVAEETIKDYFEARLALLEPVFPIACHRLCEGPDFSTDFNYKPPQNIPEGSGILLFIFHANFLGKEVIARLCGPCSVQAVVLNDKFQLPVFLDSHFVYSFSPVAGPNKLFIRLTEAPSAKVKLLIGAYRVQLQ [MPHOSPH8]”, the figures for the thermal stability score with HeLa Kyoto [1] (setting [5]) and in the series on HeLa Kyoto [1] (cell cycle stage: mitosis) were 0.43 and 1.88, respectively. In addition, the melting temperature in the series with HeLa Kyoto [2] (cell cycle stage: G1/S) stood at 49.3 °C; with HeLa Kyoto [2] (cell cycle stage: mitosis), 50 °C. For the same sequence, the “solubility change mitosis (log2)” value in the series on HeLa Kyoto [3] worked out at 0.82. For the same sequence, the “solubility in G1/S (log2)” value with HeLa Kyoto [4] is -1.16.
Regarding “MEQVEILRKFIQRVQAMKSPDHNGEDNFARDFMRLRRLSTKYRTEKIYPTATGEKEENVKKNRYKDILPFDHSRVKLTLKTPSQDSDYINANFIKGVYGPKAYVATQGPLANTVIDFWRMIWEYNVVIIVMACREFEMGRKKCERYWPLYGEDPITFAPFKISCEDEQARTDYFIRTLLLEFQNESRRLYQFHYVNWPDHDVPSSFDSILDMISLMRKYQEHEDVPICIHCSAGCGRTGAICAIDYTWNLLKAGKIPEEFNVFNLIQEMRTQRHSAVQTKEQYELVHRAIAQLFEKQLQLYEIHGAQKIADGVNEINTENMVSSIEPEKQDSPPPKPPRTRSCLVEGDAKEEILQPPEPHPVPPILTPSPPSAFPTVTTVWQDNDRYHPKPVLHMVSSEQHSADLNRNYSKSTELPGKNESTIEQIDKKLERNLSFEIKKVPLQEGPKSFDGNTLLNRGHAIKIKSASPCIADKISKPQELSSDLNVGDTSQNSCVDCSVTQSNKVSVTPPEESQNSDTPPRPDRLPLDEKGHVTWSFHGPENAIPIPDLSEGNSSDINYQTRKTVSLTPSPTTQVETPDLVDHDNTSPLFRTPLSFTNPLHSDDSDSDERNSDGAVTQNKTNISTASATVSAATSTESISTRKVLPMSIARHNIAGTTHSGAEKDVDVSEDSPPPLPERTPESFVLASEHNTPVRSEWSELQSQERSEQKKSEGLITSENEKCDHPAGGIHYEMCIECPPTFSDKREQISENPTEATDIGFGNRCGKPKGPRDPPSEWT [PTPN12]”, the thermal stability score in the series with HeLa Kyoto [1] (setting [5]) is -0.24; with HeLa Kyoto [1] (cell cycle stage: mitosis), 0.678. The melting temperature with HeLa Kyoto [2] (cell cycle stage: G1/S) came out at 49.4 °C; in the series with HeLa Kyoto [2] (cell cycle stage: mitosis) it was 49.8 °C. Also, the “solubility change mitosis (log2)” value with HeLa Kyoto [3] was -0.242. Besides, the “solubility in G1/S (log2)” value in the series with HeLa Kyoto [4] amounted to 0.143.
As to “MEQWRQCGRWLIDCKVLPPNHRVVWPSAVVFDLAQALRDGVLLCQLLHNLSPGSIDLKDINFRPQMSQFLCLKNIRTFLKVCHDKFGLRNSELFDPFDLFDVRDFGKVISAVSRLSLHSIAQNKGIRPFPSEETTENDDDVYRSLEELADEHDLGEDIYDCVPCEDGGDDIYEDIIKVEVQQPMIRYMQKMGMTEDDKRNCCLLEIQETEAKYYRTLEDIEKNYMSPLRLVLSPADMAAVFINLEDLIKVHHSFLRAIDVSVMVGGSTLAKVFLDFKERLLIYGEYCSHMEHAQNTLNQLLASREDFRQKVEECTLKVQDGKFKLQDLLVVPMQRVLKYHLLLKELLSHSAERPERQQLKEALEAMQDLAMYINEVKRDKETLRKISEFQSSIENLQVKLEEFGRPKIDGELKVRSIVNHTKQDRYLFLFDKVVIVCKRKGYSYELKEIIELLFHKMTDDPMNNKDVKKSHGKMWSYGFYLIHLQGKQGFQFFCKTEDMKRKWMEQFEMAMSNIKPDKANANHHSFQMYTFDKTTNCKACKMFLRGTFYQGYMCTKCGVGAHKECLEVIPPCKFTSPADLDASGAGPGPKMVAMQNYHGNPAPPGKPVLTFQTGDVLELLRGDPESPWWEGRLVQTRKSGYFPSSSVKPCPVDGRPPISRPPSREIDYTAYPWFAGNMERQQTDNLLKSHASGTYLIRERPAEAERFAISIKFNDEVKHIKVVEKDNWIHITEAKKFDSLLELVEYYQCHSLKESFKQLDTTLKYPYKSRERSASRASSRSPASCASYNFSFLSPQGLSFASQGPSAPFWSVFTPRVIGTAVARYNFAARDMRELSLREGDVVRIYSRIGGDQGWWKGETNGRIGWFPSTYVEEEGIQ [VAV2]”, the thermal stability score in the series on HeLa Kyoto [1] (setting [5]) turned out to be 0.0861; in the series with HeLa Kyoto [1] (cell cycle stage: mitosis), 1.36. Besides, the melting temperature with HeLa Kyoto [2] (cell cycle stage: G1/S) is 48.7 °C; with HeLa Kyoto [2] (cell cycle stage: mitosis), 48.9 °C. Further, the “solubility change mitosis (log2)” value in the series with HeLa Kyoto [3] was -0.269. Moreover, the “solubility in G1/S (log2)” value with HeLa Kyoto [4] is -0.0231.
Take “MERAGATSRGGQAPGFLLRLHTEGRAEAARVQEQDLRQWGLTGIHLRSYQLEGVNWLAQRFHCQNGCILGDEMGLGKTCQTIALFIYLAGRLNDEGPFLILCPLSVLSNWKEEMQRFAPGLSCVTYAGDKEERACLQQDLKQESRFHVLLTTYEICLKDASFLKSFPWSVLVVDEAHRLKNQSSLLHKTLSEFSVVFSLLLTGTPIQNSLQELYSLLSFVEPDLFSKEEVGDFIQRYQDIEKESESASELHKLLQPFLLRRVKAEVATELPKKTEVVIYHGMSALQKKYYKAILMKDLDAFENETAKKVKLQNILSQLRKCVDHPYLFDGVEPEPFEVGDHLTEASGKLHLLDKLLAFLYSGGHRVLLFSQMTQMLDILQDYMDYRGYSYERVDGSVRGEERHLAIKNFGQQPIFVFLLSTRAGGVGMNLTAADTVIFVDSDFNPQNDLQAAARAHRIGQNKSVKVIRLIGRDTVEEIVYRKAASKLQLTNMIIEGGHFTLGAQKPAADADLQLSEILKFGLDKLLASEGSTMDEIDLESILGETKDGQWVSDALPAAEGGSRDQEEGKNHMYLFEGKDYSKEPSKEDRKSFEQLVNLQKTLLEKASQEGRSLRNKGSVLIPGLVEGSTKRKRVLSPEELEDRQKKRQEAAAKRRRLIEEKKRQKEEAEHKKKMAWWESNNYQSFCLPSEESEPEDLENGEESSAELDYQDPDATSLKYVSGDVTHPQAGAEDALIVHCVDDSGHWGRGGLFTALEKRSAEPRKIYELAGKMKDLSLGGVLLFPVDDKESRNKGQDLLALIVAQHRDRSNVLSGIKMAALEEGLKKIFLAAKKKKASVHLPRIGHATKGFNWYGTERLIRKHLAARGIPTYIYYFPRSKSAVLHSQSSSSSSRQLVP [CHD1L]”: the thermal stability score in the series with HeLa Kyoto [1] (setting [5]) came to 0.274; with HeLa Kyoto [1] (cell cycle stage: mitosis), 0.334. Besides, the melting temperature with HeLa Kyoto [2] (cell cycle stage: G1/S) came out at 46.9 °C; in the series on HeLa Kyoto [2] (cell cycle stage: mitosis), 49 °C. Further, in the series with HeLa Kyoto [3], the “solubility change mitosis (log2)” value was -0.0342. The “solubility in G1/S (log2)” value in the series with HeLa Kyoto [4] is -0.105.
